Data: patent US20240294607

Test system: T1, His-Tag-FGG (recombinant human fibrinogen gamma chain with N-terminal His-tag, produced in E. coli)
T1 sequence: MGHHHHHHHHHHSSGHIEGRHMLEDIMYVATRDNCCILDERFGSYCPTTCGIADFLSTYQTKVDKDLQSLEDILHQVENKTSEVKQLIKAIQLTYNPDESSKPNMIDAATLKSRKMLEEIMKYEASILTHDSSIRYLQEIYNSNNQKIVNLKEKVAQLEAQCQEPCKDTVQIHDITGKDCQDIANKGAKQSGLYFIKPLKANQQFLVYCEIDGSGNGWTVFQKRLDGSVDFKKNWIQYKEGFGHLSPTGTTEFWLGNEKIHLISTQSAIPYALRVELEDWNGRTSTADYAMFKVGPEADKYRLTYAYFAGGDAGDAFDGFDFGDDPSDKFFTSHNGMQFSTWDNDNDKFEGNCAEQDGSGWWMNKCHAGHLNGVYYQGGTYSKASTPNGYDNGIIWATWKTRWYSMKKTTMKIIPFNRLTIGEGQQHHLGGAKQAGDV

Substance: factor XIII
- SDS-PAGE analysis of polymerization (crosslinking) of FGG with factor XIII: recombinant FGG can be crosslinked by factor XIII and produces dimers (about 100 kDa) and higher molecular weight FGG structures
